We go through 21 sequences from the DeepSol protein solubility set.

A short description of this data set: soluble on expression in E. coli; label from the status in PepcDB or PDB records.
Take “MSLASISPQGSMSLLSQLEIERLKASSNSQLYKLFRNCCLAVLNAGSHTDSSADIYDSYKDFEVNIIRRERGIKLELIEPPEEAFVDGEVIVGIRELLESVLRDILFTGERYSETDLEHADSATLTHVVFDILRNARTLRPQEEPNMVVCWGGHSINEIEYKYTKDVGYHIGLRGLNICTGCGPGAMKGPMKGATIGHAKQRVEGGRYLGLTEPGIIAAEPPNPIVNELVILPDIEKRLEAFVRCAHGIVIFPGGAGTAEELLYLLGILMHPDNQRQSLPVILTGPASSRDYFEALDEFIGATIGDEARQLYKIIIDDPAAVAQHMHAGMAAVKQYRRDSGDAYYFNWTLKINEEFQRPFSPTHENVAALNLHPDQPKERLAADLRRAFSAIVAGNVKDEGIRQIRKNGVFTIHGEQSLMKRLDELLRAFVEQGRMKLPGSVYNPCYKVITDEGHHHHHH”: the “soluble on expression in E. coli” value is on record as “soluble”.

Regarding “MSKLVYLLLMIFFLNPAWANTHYHQHPVSPLANALRTGTDTNGNALYLCRAKLFNSIQPGKTWAGYGRCNVPYGGKEYVLSQFTIPNQNEFGRYSWEPNVEHALLMGKDTNGNPLFVCQSNFNGSIQPGKTWPGYSHCNISYGGREIITDNYRILSRPTEIIVRTQPPVHRHPSQNRHYHYLEHHHHHH”, the “soluble on expression in E. coli” value is on record as “soluble”.

In the case of “MRVENSNGQSQPAATSKTVKDNAEIYYDNDDSDRFYFHVWGGEDIHVGLYKEPVDQDEIREASLRTDEWLASELAMTGVLQRQAKGLDLGAGYGGAARFLVRKFGVSIDCLNIAPVQNKRNEEYNSQAGLADNITVKYGSFLEIPCEDNSYDFIWSQDAFLHSPDKLKVFQECARVLKPGGVMAITDPMKEDGIDKSSIQPILDRIKLHDMGSLGLYRSLAKECGLVTLRTFSRPDSLVHHYSKVKAELIKRSSEIASFCSPEFQANMKRGLEHWIEGGRAGKLTWGGMLFRKSDKI”, the “soluble on expression in E. coli” value is recorded as “soluble”.

On to “MTGNSFNSMKDFLKQTGGYAVIDGGLATEFERHGADLNDPLWSAKCLVTSPHLIHTVHLDYLEAGADIISSASYQATIQGFEAKGFSREESESLLKKSVEIATEARNSYYDKCGTSSSMDDKILKKRPILVAASVGSYGAYLADGSEYSGIYGDSITLEKLKDFHRRRLQVLAESGADLIAFETIPNKIEAQAFADLLEEGDVKIPGWFSFNSKDGVNVVSGDSIKECISIAENCEKVVAVGINCTPPRFIEGLVLEIEKVTSKPILVYPNSGESYDADRKEWVENTGVGDEDFVSYVEKWMDAGVSLLGGCCRTTPTTIRAIHKRLVNRRSL”, for which the “soluble on expression in E. coli” value was “soluble”.

As for “MANKHHVYWYRHHIVNIIMIVDSKTSDWILIDTGLFYSEAFILKKIRRVLGELIPPKAIILTHGHFDHVGALRPLLQRFPNVPVYAHELELPFLTGQRHYVKPDPSVPGGLMAKLAWLYPYHAYDFSRIICPLPDDGTLPFFTDWRWIHTPGHTEGHVSLFRPSDRFLIAGDAFTTVKQESLLSVLAQKKEIHGPPAYFTPDWELAKTSVETLQKLEPAFAVTGHGQMMEGSSLHSGLKRLISQFEQVAVPDLEHHHHHH”, the “soluble on expression in E. coli” value was “soluble”.

For the sequence “MKKQLCMIALVGATAFGTTGTSWSLDGPPPPEPPPMGKGQEHFLERMASVLKLTDAQQAQIEALISTDAEQNAPLHRQLAENERALREATTAASLDEATVRALAATKGNLMTEMIVSRAKLRNAINAILTAEQRELADRLDPLKYGPPRPRPDRPGMELEHHHHHH”, the “soluble on expression in E. coli” value is given as “soluble”.

Regarding “MASTTQNTPTKDLAEISERFEKLRARSSNNMATFNTTSSYNRTYEKKVIEEGSPNVRVTTQTHTAIPGMPDLGNIHSSMLSNFPNLAISSPSVVGSQNGNLTSIRVTNTSFHAILDVSKYDADSLKVTVVDNNIIVEGSHGEKEDTYGTIESTFKRRFPLPKAVAPESVQSQLTADGHLTIDAKAPEPKQEGARPIQIKVINTSAEQQKQ”, the “soluble on expression in E. coli” value is recorded as “not soluble”.

With “MPRLVVNSIYASGAQYQGSSSKLYVNVSNLGTENAYNVLIQVYVNGKVYGSTTVSEIKAGASDNVSINWVPPTSGKVSVYATASVNSEPRSFVTAGALTQTVSVNPLEHHHHHH”, the “soluble on expression in E. coli” value is on record as “not soluble”.

Turning to “MRPPPFPKPAHPEEALALQRALAKKVRLAGSLEGVRRIAALDASHKRGRPLVAVALLYDLEKGPLHVATALLPEEALFPYVPGLLSFREAPAYLEALAALPEAPEALLVDGQGVAHPRGLGIASHLGVHLDLPSVGVAKRLLYGRPEAPLPEEKGAAVRLLAPDGRPLGYVYRSRTGVKPLYVSPGHRVGLEEALRFVRRLPTRFRLPEPLRLAHLEAGRALKALDAAALEHHHHHH”, the “soluble on expression in E. coli” value is “not soluble”.

“MVTEAMKAKAEVYHGDKTCREKFGSLLSEIGLPNRLLSNKEIKECGYVKDTGFVWLKHKEKKKEDQKRRYQDLLRFDNVVVCFEDEVTAYFEPNRIKKLTGVKAKEFMVWISLGEIQVNRSSGLITFKTEVGLLSKSLPLSVFEDVHGDDHDLKEKPKKELKLNKTKIYLY”: the “soluble on expression in E. coli” value was “not soluble”.

In the case of “GSARPKLRVVTLVEHPFVFTRESDEDGQCPAGQLCLDPGTNDSARLDALFAALVNGSVPRTLRRCCYGYCIDLLERLAEDLAFDFELYIVGDGKYGALRDGRWTGLVGDLLAGRAHMAVTSFSINSARSQVVDFTSPFFSTSLGIMVRTRGTELSGIHDPKLHHPSQGFRFGTVWESSAEAYIKASFPEMHAHMRRHSAPTTPHGVAMLTSDPPKLNAFIMDKSLLDYEVSIDADCKLLTVGKPFAIEGYGIGLPQNSPLTSNLSEFISRYKSSGFIDLLHDKWYKMVPCGK”, the “soluble on expression in E. coli” value is given as “soluble”.

In the case of “MGERADTFLAHFNRIEKWMRERLNNPVNMGFSEMTRRLSRKEKGQIAQFEEDLLQMAQLRNAIVHERIADDFVIAEPNEWAVQRIETIEQALTKPEKVVPKFAKRVTAFEITTSLETLLTIIAKKQYSQFPIYEKGVFKGLITVRGIGVWFAIESTKGEVHIANRTVRELLASNYKRSNYQFVSIEATVFEVEQMFREQPRLEAVLISKSGHPNGELVGIVRPRDLASIHREKE”, the “soluble on expression in E. coli” value was “not soluble”.

Regarding “MGSDKIHHHHHHMNAHTIPELRYAMSREAIIGHETAWKVSSFGVAQYLHGYDPALLAAIEEAALKLKDSHAVHKHLDLTFITGADRFIPEIKELLHDKLRLERLSDMMGTKLEPYPLSIVGSTVTFMNPRDGAVEWHCDGVPVTELIPLSISNPLVGGHLEIYCDDSETGRAILESGREIPRNRIMRIDHKMNYATLGQFLGVLHRTAPIQYGERVTLVLNQRSVAKPYVDDNRMFYLAADNDHDREWVNELAEDVWTNQLPAYRRFEAEHPTPAPASETQVSGGARGSW”, the “soluble on expression in E. coli” value was “not soluble”.

For “MRSLLIALAATVALSLPARADEVTVAVTAIVEHPALDAARDGVKDALAAAGYKEGENLKFIYESAQGNPATAAQIARQFAGEAPSVIVPISTPSAQAVVSSTRDIPVVFTAVSDPLGAQLVKDMEKPGGNVTGLSDLSPVAEHVALIKEILPNVKTIGYLYNSGEANSVSLLAVLKEEAEKAGLSVIESAATKSAEVQGAARALVGRADAIYIPTDNTIISALEGAVAVAEESKLPLFTADTDSVSRGAVAALGFNYYDVGKQTGEVVVRVLKGENPGDIAVKVAAGTDLVINKGAATRMGVTLPESVVGRATRTIE”, the “soluble on expression in E. coli” value was “not soluble”.

Take “MGSDKIHHHHHHMTAEDTYKTIVEPSEGIYTEKRSKFIAIALPVRTLDEIKAHLETYQKKYYDARHVCYAYMLGAARKDFRANDNGEPSGTAGKPILGQINSNELTDILIIVVRYFGGIKLGTSGLIVAYKAAAAEAISAATIIEKTVDEEVTVMFEYPFMNDIMRIVKEEEPEILSQSYDMDCSMTLCIRRSMMPKLRARLEKVETARILDEE”: the “soluble on expression in E. coli” value was “not soluble”.

Turning to “MVADMAGSSEKFKIVLKPVTAEAVPSGDAVKVTTGGVQIDVYPEREAGGPERGLTPLGLLAASLASCEVLMSRLVGRMLGYNGFDVRVAVTADVQVAEGLRSLSIRYVFKGVDIDTANLIVSKVKELCPVYNSLVRNGVSVEENVEVE”, the “soluble on expression in E. coli” value is recorded as “soluble”.

On to “MHKIRSHSKYIIPRLNKIVEEGDADAVGFEFPVESFKFLE”, for which the “soluble on expression in E. coli” value was “not soluble”.

Consider “MSLTVQDLHFKNKVNFIGGQYVPSNESDTIDILSPSTGKVIGEIPAGCKADAENALEVAQAAQKAWAKLTARTRQNMLRTFANKIRENKHILAPMLVAEQGKLLSVAEMEVDVTATFIDYGCDNALTIEGDILPSDNQDEKIYIHKVPRGVVVGITAWNFPLALAGRKIGPALITGNTMVLKPTQETPLATTELGRIAKEAGLPDGVLNVINGTGSVVGQTLCESPITKMITMTGSTVAGKQIYKTSAEYMTPVMLELGGKAPMVVMDDADLDKAAEDALWGRFANCGQVCTCVERLYVHASVYDEFMAKFLPLVKGLKVGDPMDADSQMGPKCNQREIDNIDHIVHEAIKQGATVATGGKTATVEGFEGGCWYEPTVLVDVKQDNIVVHEETFGPILPIVKVSSMEQAIEFCNDSIYGLSAYVHTQSFANINQAISDLEVGEVYINRGMGEQHQGFHNGWKQSGFGGEDGKFGLEQYLEKKTVYINEAEGHHHHHH”, for which the “soluble on expression in E. coli” value is reported as “soluble”.

As for “MDFEQLKQDVIAYSKTIGIDKIGFASASPFEELKQRLIQQQQLNYQSGFEEPDIEKRTNPQLLLPGAKSIIAIALAYPSKLKNAPLSKRGERRGIFCRASWGQDYHLVLRDRLQKLEAYLIEKLPDIEVKSMVDTGELSDRAVSERAGIGWSGKNCSIITPEFGSYVYLGEMITNVPFPPDKPIEDQCGGCTKCIDICPTGALIQGGQLDSKKCIAFLTQTKGFLPEEYRDKIGNRIYGCDTCQTVCPKNKGMDFHNHPEMEPDPELVKPLLTPLLTISNRDFKEKYGIMSGSWRGKKPLQRNAILALAHFKEASAIPDLIGVMKDDPRPVLRGTAAWALGKIGGDGVGEAIEKAMEREKDEEVLHEMNRGLELLAQKKE”, the “soluble on expression in E. coli” value is reported as “not soluble”.

For the sequence “MDLELEPTLESIVQHDSLKWIFVGGKGGVGKTTTSSSVAVQLALAQPNEQFLLISTDPAHNLSDAFCQKFGKDARKVEGLPNLSCMEIDPEAAMSDLQQQASQYNNDPNDPLKSMMSDMTGSIPGIDEALSFMEVLKHIKNQKVLEGEDNSNAISYKTIIFDTAPTGHTLRFLQLPSTLEKLLSKFKDLSGKLGPMLSMMGGGQQQDIFEKLNEVQKNVSEVNEQFTNPELTTFICVCISEFLSLYETERMIQELMSYNMDVNSIVVNQLLFAEGDDHSCKRCESRWKMQKKYLDQMGELYEDYHLVKMPLLGCEIRGVENLKKFSKFLLKPYDPKADSDIVFDLEEK”, the “soluble on expression in E. coli” value was “soluble”.

For “MRRLLWLLTLGALAVALTACPRKAEEEAATETAPAEETSLPGANVRVGLAFDAGGKFDRSFNQSAWEGAQRAAQELGVQIFDFEPADPSQVGQGIRTFAEEGFDLVIGVGFANEPAITATAKEFPNVKFAVIDAVPGEGQLPNALGVVFREHEGSFLVGYVAGKLSRTGVVGFIGGMDIPLIHKFEAGFRAGAEYAFQEDGIQGRVLVGYVGNTPAAWNDPAKAKEIASSQARQGADIIYAAAGGSGLGLIDFVKEEMCLREGGAVRFVREDRFADVPKYPAYEEKCGEGTTPLFFIGVDANQNYLGDTDNDPTTLNHGLTSMVKRVDVAVYDTIKSVVDGTFQGGVKDLGLAEEGVGYALDEYNQALIPEEVKARLEELKQAIINGEIQVPETR”, the “soluble on expression in E. coli” value is listed as “soluble”.
